Data set [1] has as its target T1, mouse leukotriene C4 synthase (mLTC4S) (Mus musculus, UniProt Q60860).
T1 construct: gene Ltc4s; N-terminal hexa-histidine tag
T1 sequence (Q60860 1-150): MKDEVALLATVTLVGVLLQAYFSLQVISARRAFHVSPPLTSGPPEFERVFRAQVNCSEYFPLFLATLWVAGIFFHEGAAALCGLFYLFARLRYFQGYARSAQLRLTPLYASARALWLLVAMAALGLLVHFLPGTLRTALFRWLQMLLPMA
Briefly: X-ray crystal structure (co-crystal), […] Å; Km […] also measured. The data set is classed as binding.

The target in data set [2] is T2, human leukotriene C4 synthase (hLTC4S) (Homo sapiens, UniProt Q16873).
T2 construct: gene LTC4S
T2 sequence (Q16873 1-150): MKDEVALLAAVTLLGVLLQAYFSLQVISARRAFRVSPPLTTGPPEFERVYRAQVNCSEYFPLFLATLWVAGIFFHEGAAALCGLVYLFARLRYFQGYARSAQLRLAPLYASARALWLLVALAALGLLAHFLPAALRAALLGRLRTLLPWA
Briefly: LTC4 formation by purified enzyme, RP-HPLC; competitive inhibition model fit. Type of data set: biochemical.

The target in data set [3] is T1, mouse leukotriene C4 synthase (mLTC4S). The description is as above. The data set is classed as biochemical.
Substrate in data set [4]: CCCCC/C=C\C\C=C/C=C/C=C/[C@@H]1O[C@H]1CCCC(=O)O
Briefly: steady-state kinetics (Km) of purified enzyme, RP-HPLC. Type of data set: biochemical, Mus musculus. Conditions: GSH hydrophobic LTA4 binding site; pH 7.8.

Substrate in data set [5]: CCCCC/C=C\C\C=C/C=C/C=C/[C@@H]1O[C@H]1CCCC(=O)O
Described as above. Type of data set: biochemical, Homo sapiens. Conditions: GSH hydrophobic LTA4 binding site; pH 7.8.

As to `N[C@@H](CCC(=O)N[C@@H](CS)C(=O)NCC(=O)O)C(=O)O` [GSH], the “X-ray crystal structure (co-crystal), 2.7 Å; Km 1.2±0.24 mM also measured” value in data set [1] is “In the structure of the mLTC4S in complex with GSH, the tripeptide has a “U” shaped conformation”.

`CN(c1ccc(Cl)cc1)c1ccc(C(=O)c2ccc(C(=O)c3ccccc3)c(C(=O)O)c2)nc1` [TK04, 2-Benzoyl-5-{5-[(4-chlorophenyl) (methyl)amino]pyridine-2-carbonyl}benzoic acid]: the figures for the Ki in data set [2] and in data set [3] were 41 ± 6.6 nM and 37 ± 6.4 nM, respectively.

B1: mouse leukotriene C4 synthase (mLTC4S) (Mus musculus) (protein)
chain: T1 sequence (Q60860 1-150)
notes: N-terminal hexa-histidine tag
Take B1: in data set [4], the Km (as a rule, the concentration of substrate that gives half-maximal velocity) stood at 36 ± 8 µM; the kcat (usually the number of substrate molecules converted per active site and unit of time at saturation) is 81 ± 7 s⁻¹; the kcat/Km (as a rule, the turnover number divided by the Michaelis constant) stood at 2.3e+06 ± 260000 M⁻¹ s⁻¹.

B2: human leukotriene C4 synthase (hLTC4S) (Homo sapiens) (protein)
chain: T2 sequence (Q16873 1-150)
For the molecule B2, in data set [5], the Km is 23 ± 3 µM, the kcat amounted to 15.5 ± 0.8 s⁻¹ and the kcat/Km amounted to 600000 ± 57000 M⁻¹ s⁻¹.

The values are drawn from PMC4014545, “Structure and Inhibition of Mouse Leukotriene C4 Synthase” (PLoS ONE, 2014).
